Data reported in PMC9482650, “Quantitative fragmentomics allow affinity mapping of interactomes” (Nature Communications, 2022).

T1: APBA2_2, Q99767
T1 sequence (Q99767 654-744, limits assumed, looked up): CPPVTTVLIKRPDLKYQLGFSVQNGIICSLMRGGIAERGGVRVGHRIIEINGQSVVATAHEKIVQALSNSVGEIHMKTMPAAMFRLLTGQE

T2: RADIL, Q96JH8
T2 sequence (Q96JH8 971-1071, limits assumed, looked up): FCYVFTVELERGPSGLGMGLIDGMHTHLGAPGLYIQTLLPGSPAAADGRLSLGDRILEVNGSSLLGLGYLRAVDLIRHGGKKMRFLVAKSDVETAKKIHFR

T3: MPDZ_10, O75970
T3 sequence (O75970 1624-1722, limits assumed, looked up): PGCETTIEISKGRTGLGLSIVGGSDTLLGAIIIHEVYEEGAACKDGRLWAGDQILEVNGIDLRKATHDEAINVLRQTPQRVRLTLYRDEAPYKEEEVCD

T4: LIN7A, O14910
T4 sequence (O14910 103-200, limits assumed, looked up): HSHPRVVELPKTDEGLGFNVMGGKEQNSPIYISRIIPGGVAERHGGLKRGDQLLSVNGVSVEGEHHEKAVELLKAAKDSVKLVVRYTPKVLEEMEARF

T5: MPP2, Q14168
T5 sequence (Q14168 180-250, limits assumed, looked up): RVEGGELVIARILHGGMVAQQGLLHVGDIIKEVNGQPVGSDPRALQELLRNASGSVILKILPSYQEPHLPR

T6: TX1BP3, O14907
T6 sequence (O14907 10-122, limits assumed, looked up): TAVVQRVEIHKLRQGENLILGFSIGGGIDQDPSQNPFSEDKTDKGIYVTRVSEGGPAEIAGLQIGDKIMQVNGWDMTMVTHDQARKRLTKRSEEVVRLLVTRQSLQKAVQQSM

T7: NHERF3_4, Q5T2W1
T7 sequence (Q5T2W1 373-468, limits assumed, looked up): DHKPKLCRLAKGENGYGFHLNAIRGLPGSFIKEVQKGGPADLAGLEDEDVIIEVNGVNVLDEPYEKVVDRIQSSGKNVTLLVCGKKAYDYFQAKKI

T8: LNX2_2, Q8N448
T8 sequence (Q8N448 334-432, limits assumed, looked up): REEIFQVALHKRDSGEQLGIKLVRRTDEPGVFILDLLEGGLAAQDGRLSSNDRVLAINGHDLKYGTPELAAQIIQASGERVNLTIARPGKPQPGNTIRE

T9: DFNB31_2, Q9P202
T9 sequence (Q9P202 274-371, limits assumed, looked up): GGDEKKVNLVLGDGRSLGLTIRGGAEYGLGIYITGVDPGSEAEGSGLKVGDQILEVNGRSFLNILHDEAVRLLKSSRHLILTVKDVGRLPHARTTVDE

T10: PCLO, Q9Y6V0
T10 sequence (Q9Y6V0 4491-4600, limits assumed, looked up): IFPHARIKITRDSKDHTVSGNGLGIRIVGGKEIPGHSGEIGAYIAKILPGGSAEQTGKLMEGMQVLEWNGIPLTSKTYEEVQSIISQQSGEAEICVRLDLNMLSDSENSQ

T11: GRIP1_7, Q9Y3R0
T11 sequence (Q9Y3R0 999-1096, limits assumed, looked up): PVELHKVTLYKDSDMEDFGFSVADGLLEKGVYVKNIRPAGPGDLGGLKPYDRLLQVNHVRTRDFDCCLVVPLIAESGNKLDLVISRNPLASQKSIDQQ

T12: HTRA4, P83105
T12 sequence (P83105 378-476, limits assumed, looked up): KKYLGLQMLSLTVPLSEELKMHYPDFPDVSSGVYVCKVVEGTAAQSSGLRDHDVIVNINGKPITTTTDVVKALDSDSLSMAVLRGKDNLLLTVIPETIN

B1: HDAC7, Q8WUI4 (peptide)
chain: LVEEEEPMNL
B2: FAM167B, Q9BTA0 (peptide)
chain: NISARRFTLC
B3: LRRC4, Q9HBW1 (peptide)
chain: TKDKVQETQI
B4: CACNA1D, Q01668 (peptide)
chain: ADEMICITTL
B5: NEB, P20929 (peptide)
chain: MLPANYVEAI

Target: Inadl_10, Q8NI35
Assay: holdup assay
Design: key: below the threshold = too weak to quantify, mostly under pKd 3.1 to 4
Settings: plain residues with an end cap or a label only (N-terminal biotin on a linker: ado-ado)

Chain of Inadl_10, Q8NI35 (Q8NI35 1673-1763): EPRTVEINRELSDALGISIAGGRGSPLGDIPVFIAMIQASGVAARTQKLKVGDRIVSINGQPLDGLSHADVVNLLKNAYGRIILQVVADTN

Row | pKd | Binder
1 | below the threshold | B1
2 | below the threshold | B2
3 | below the threshold | B3
4 | 4.42 | B4
5 | below the threshold | B5

Target: T1, APBA2_2, Q99767
Assay: holdup assay
Design: key: below the threshold = too weak to quantify, mostly under pKd 3.1 to 4
Settings: plain residues with an end cap or a label only (N-terminal biotin on a linker: ado-ado)

Row | pKd | Binder
6 | below the threshold | B1
7 | below the threshold | B2
8 | below the threshold | B3
9 | below the threshold | B4
10 | below the threshold | B5

Target: T2, RADIL, Q96JH8
Assay: holdup assay
Design: key: below the threshold = too weak to quantify, mostly under pKd 3.1 to 4
Settings: plain residues with an end cap or a label only (N-terminal biotin on a linker: ado-ado)

Row | pKd | Binder
11 | below the threshold | B1
12 | 4.62 | B2
13 | below the threshold | B3
14 | 4.62 | B4
15 | 3.65 | B5

Target: T3, MPDZ_10, O75970
Assay: holdup assay
Design: key: below the threshold = too weak to quantify, mostly under pKd 3.1 to 4
Settings: plain residues with an end cap or a label only (N-terminal biotin on a linker: ado-ado)

Row | pKd | Binder
16 | below the threshold | B1
17 | below the threshold | B2
18 | below the threshold | B3
19 | below the threshold | B4
20 | below the threshold | B5

Target: Inadl_5, Q8NI35
Assay: holdup assay
Design: key: below the threshold = too weak to quantify, mostly under pKd 3.1 to 4
Settings: plain residues with an end cap or a label only (N-terminal biotin on a linker: ado-ado)

Chain of Inadl_5, Q8NI35 (Q8NI35 673-780): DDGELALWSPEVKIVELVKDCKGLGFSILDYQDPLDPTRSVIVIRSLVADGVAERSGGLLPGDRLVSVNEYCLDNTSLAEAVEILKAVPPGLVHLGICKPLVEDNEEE

Row | pKd | Binder
21 | below the threshold | B1
22 | below the threshold | B2
23 | below the threshold | B3
24 | below the threshold | B4
25 | below the threshold | B5

Target: T4, LIN7A, O14910
Assay: holdup assay
Design: key: below the threshold = too weak to quantify, mostly under pKd 3.1 to 4
Settings: plain residues with an end cap or a label only (N-terminal biotin on a linker: ado-ado)

Row | pKd | Binder
26 | below the threshold | B1
27 | below the threshold | B2
28 | 3.51 | B3
29 | below the threshold | B4
30 | below the threshold | B5

Target: T5, MPP2, Q14168
Assay: holdup assay
Design: key: below the threshold = too weak to quantify, mostly under pKd 3.1 to 4
Settings: plain residues with an end cap or a label only (N-terminal biotin on a linker: ado-ado)

Row | pKd | Binder
31 | below the threshold | B1
32 | 3.82 | B2
33 | below the threshold | B3
34 | below the threshold | B4
35 | below the threshold | B5

Target: T6, TX1BP3, O14907
Assay: holdup assay
Design: key: below the threshold = too weak to quantify, mostly under pKd 3.1 to 4
Settings: plain residues with an end cap or a label only (N-terminal biotin on a linker: ado-ado)

Row | pKd | Binder
36 | 4.01 | B1
37 | below the threshold | B2
38 | 4.28 | B3
39 | 3.87 | B4
40 | below the threshold | B5

Target: T7, NHERF3_4, Q5T2W1
Assay: holdup assay
Design: key: below the threshold = too weak to quantify, mostly under pKd 3.1 to 4
Settings: plain residues with an end cap or a label only (N-terminal biotin on a linker: ado-ado)

Row | pKd | Binder
41 | below the threshold | B1
42 | below the threshold | B2
43 | 3.57 | B3
44 | 4.19 | B4
45 | below the threshold | B5

Target: TJP1_2, Q07157
Assay: holdup assay
Design: key: below the threshold = too weak to quantify, mostly under pKd 3.1 to 4
Settings: plain residues with an end cap or a label only (N-terminal biotin on a linker: ado-ado)

Chain of TJP1_2, Q07157 (Q07157 181-274): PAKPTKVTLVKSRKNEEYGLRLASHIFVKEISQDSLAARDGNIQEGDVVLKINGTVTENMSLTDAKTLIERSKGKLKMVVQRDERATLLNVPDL

Row | pKd | Binder
46 | below the threshold | B1
47 | below the threshold | B2
48 | 3.64 | B3
49 | below the threshold | B4
50 | below the threshold | B5

Target: MAGI3_2, Q5TCQ9
Assay: holdup assay
Design: key: below the threshold = too weak to quantify, mostly under pKd 3.1 to 4
Settings: plain residues with an end cap or a label only (N-terminal biotin on a linker: ado-ado)

Chain of MAGI3_2, Q5TCQ9 (Q5TCQ9 398-503): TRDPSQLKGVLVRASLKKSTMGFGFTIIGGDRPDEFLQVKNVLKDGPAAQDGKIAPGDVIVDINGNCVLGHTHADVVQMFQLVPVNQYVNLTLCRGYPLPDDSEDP

Row | pKd | Binder
51 | below the threshold | B1
52 | 4.67 | B2
53 | 4.87 | B3
54 | below the threshold | B4
55 | below the threshold | B5

Target: LNX1_3, Q8TBB1
Assay: holdup assay
Design: key: below the threshold = too weak to quantify, mostly under pKd 3.1 to 4
Settings: plain residues with an end cap or a label only (N-terminal biotin on a linker: ado-ado)

Chain of LNX1_3, Q8TBB1 (Q8TBB1 500-596): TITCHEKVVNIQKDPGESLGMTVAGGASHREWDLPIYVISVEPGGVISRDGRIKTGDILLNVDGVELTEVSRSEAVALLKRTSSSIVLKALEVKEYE

Row | pKd | Binder
56 | below the threshold | B1
57 | below the threshold | B2
58 | below the threshold | B3
59 | below the threshold | B4
60 | below the threshold | B5

Target: TJP2_1, Q9UDY2
Assay: holdup assay
Design: key: below the threshold = too weak to quantify, mostly under pKd 3.1 to 4
Settings: plain residues with an end cap or a label only (N-terminal biotin on a linker: ado-ado)

Chain of TJP2_1, Q9UDY2 (Q9UDY2 24-128): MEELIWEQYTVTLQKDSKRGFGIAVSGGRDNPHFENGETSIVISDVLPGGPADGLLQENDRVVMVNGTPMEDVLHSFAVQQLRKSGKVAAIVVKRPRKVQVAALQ

Row | pKd | Binder
61 | below the threshold | B1
62 | 4.76 | B2
63 | below the threshold | B3
64 | below the threshold | B4
65 | below the threshold | B5

Target: MAGI1_1, Q96QZ7
Assay: holdup assay
Design: key: below the threshold = too weak to quantify, mostly under pKd 3.1 to 4
Settings: plain residues with an end cap or a label only (N-terminal biotin on a linker: ado-ado)

Chain of MAGI1_1, Q96QZ7 (Q96QZ7 1-106): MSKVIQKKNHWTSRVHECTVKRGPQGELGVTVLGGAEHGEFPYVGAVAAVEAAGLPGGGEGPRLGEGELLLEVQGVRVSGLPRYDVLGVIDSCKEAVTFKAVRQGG

Row | pKd | Binder
66 | below the threshold | B1
67 | 3.59 | B2
68 | 3.59 | B3
69 | 3.51 | B4
70 | below the threshold | B5

Target: IL16_3, Q14005
Assay: holdup assay
Design: key: below the threshold = too weak to quantify, mostly under pKd 3.1 to 4
Settings: plain residues with an end cap or a label only (N-terminal biotin on a linker: ado-ado)

Chain of IL16_3, Q14005 (Q14005 1107-1207): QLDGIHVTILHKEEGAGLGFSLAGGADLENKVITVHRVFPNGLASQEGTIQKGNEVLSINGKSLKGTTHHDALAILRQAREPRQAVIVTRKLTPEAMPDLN

Row | pKd | Binder
71 | below the threshold | B1
72 | below the threshold | B2
73 | below the threshold | B3
74 | below the threshold | B4
75 | below the threshold | B5

Target: FRMPD2_2, Q68DX3
Assay: holdup assay
Design: key: below the threshold = too weak to quantify, mostly under pKd 3.1 to 4
Settings: plain residues with an end cap or a label only (N-terminal biotin on a linker: ado-ado)

Chain of FRMPD2_2, Q68DX3 (Q68DX3 944-1038): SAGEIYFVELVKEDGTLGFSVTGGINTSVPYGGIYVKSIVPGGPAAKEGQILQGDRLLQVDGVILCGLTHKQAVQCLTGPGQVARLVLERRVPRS

Row | pKd | Binder
76 | below the threshold | B1
77 | 3.67 | B2
78 | 3.82 | B3
79 | 3.86 | B4
80 | below the threshold | B5

Target: T8, LNX2_2, Q8N448
Assay: holdup assay
Design: key: below the threshold = too weak to quantify, mostly under pKd 3.1 to 4
Settings: plain residues with an end cap or a label only (N-terminal biotin on a linker: ado-ado)

Row | pKd | Binder
81 | below the threshold | B1
82 | 5.39 | B2
83 | below the threshold | B3
84 | 3.93 | B4
85 | below the threshold | B5

Target: Inadl_8, Q8NI35
Assay: holdup assay
Design: key: below the threshold = too weak to quantify, mostly under pKd 3.1 to 4
Settings: plain residues with an end cap or a label only (N-terminal biotin on a linker: ado-ado)

Chain of Inadl_8, Q8NI35 (Q8NI35 1425-1530): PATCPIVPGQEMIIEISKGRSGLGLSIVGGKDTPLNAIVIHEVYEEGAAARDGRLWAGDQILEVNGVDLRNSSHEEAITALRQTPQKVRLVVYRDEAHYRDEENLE

Row | pKd | Binder
86 | below the threshold | B1
87 | 3.54 | B2
88 | 3.5 | B3
89 | 3.61 | B4
90 | below the threshold | B5

Target: MAGI1_2, Q96QZ7
Assay: holdup assay
Design: key: below the threshold = too weak to quantify, mostly under pKd 3.1 to 4
Settings: plain residues with an end cap or a label only (N-terminal biotin on a linker: ado-ado)

Chain of MAGI1_2, Q96QZ7 (Q96QZ7 456-580): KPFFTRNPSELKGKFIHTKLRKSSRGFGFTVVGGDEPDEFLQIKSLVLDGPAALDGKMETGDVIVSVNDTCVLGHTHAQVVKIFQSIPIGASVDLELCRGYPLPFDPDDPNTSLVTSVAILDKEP

Row | pKd | Binder
91 | below the threshold | B1
92 | 5.12 | B2
93 | below the threshold | B3
94 | below the threshold | B4
95 | below the threshold | B5

Target: T9, DFNB31_2, Q9P202
Assay: holdup assay
Design: key: below the threshold = too weak to quantify, mostly under pKd 3.1 to 4
Settings: plain residues with an end cap or a label only (N-terminal biotin on a linker: ado-ado)

Row | pKd | Binder
96 | below the threshold | B1
97 | below the threshold | B2
98 | 3.71 | B3
99 | below the threshold | B4
100 | below the threshold | B5

Target: Inadl_9, Q8NI35
Assay: holdup assay
Design: key: below the threshold = too weak to quantify, mostly under pKd 3.1 to 4
Settings: plain residues with an end cap or a label only (N-terminal biotin on a linker: ado-ado)

Chain of Inadl_9, Q8NI35 (Q8NI35 1530-1615): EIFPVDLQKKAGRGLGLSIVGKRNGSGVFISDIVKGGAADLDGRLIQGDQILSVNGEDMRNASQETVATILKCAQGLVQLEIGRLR

Row | pKd | Binder
101 | below the threshold | B1
102 | below the threshold | B2
103 | below the threshold | B3
104 | below the threshold | B4
105 | below the threshold | B5

Target: ARHGEF12, Q9NZN5-2
Assay: holdup assay
Design: key: below the threshold = too weak to quantify, mostly under pKd 3.1 to 4
Settings: plain residues with an end cap or a label only (N-terminal biotin on a linker: ado-ado)

Chain of ARHGEF12, Q9NZN5-2 (Q9NZN5 other isoform, or with tags, fused parts or gaps): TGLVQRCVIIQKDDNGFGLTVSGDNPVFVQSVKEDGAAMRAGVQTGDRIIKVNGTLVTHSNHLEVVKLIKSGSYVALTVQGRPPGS

Row | pKd | Binder
106 | below the threshold | B1
107 | 4.13 | B2
108 | 4.57 | B3
109 | 6.18 | B4
110 | below the threshold | B5

Target: FRMPD2_3, Q68DX3
Assay: holdup assay
Design: key: below the threshold = too weak to quantify, mostly under pKd 3.1 to 4
Settings: plain residues with an end cap or a label only (N-terminal biotin on a linker: ado-ado)

Chain of FRMPD2_3, Q68DX3 (Q68DX3 1073-1166): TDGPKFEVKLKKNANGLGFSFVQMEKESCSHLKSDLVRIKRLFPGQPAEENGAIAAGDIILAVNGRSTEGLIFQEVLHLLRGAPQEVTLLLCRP

Row | pKd | Binder
111 | below the threshold | B1
112 | below the threshold | B2
113 | below the threshold | B3
114 | below the threshold | B4
115 | below the threshold | B5

Target: T10, PCLO, Q9Y6V0
Assay: holdup assay
Design: key: below the threshold = too weak to quantify, mostly under pKd 3.1 to 4
Settings: plain residues with an end cap or a label only (N-terminal biotin on a linker: ado-ado)

Row | pKd | Binder
116 | below the threshold | B1
117 | below the threshold | B2
118 | below the threshold | B3
119 | below the threshold | B4
120 | below the threshold | B5

Target: T11, GRIP1_7, Q9Y3R0
Assay: holdup assay
Design: key: below the threshold = too weak to quantify, mostly under pKd 3.1 to 4
Settings: plain residues with an end cap or a label only (N-terminal biotin on a linker: ado-ado)

Row | pKd | Binder
121 | below the threshold | B1
122 | below the threshold | B2
123 | below the threshold | B3
124 | below the threshold | B4
125 | below the threshold | B5

Target: T12, HTRA4, P83105
Assay: holdup assay
Design: key: below the threshold = too weak to quantify, mostly under pKd 3.1 to 4
Settings: plain residues with an end cap or a label only (N-terminal biotin on a linker: ado-ado)

Row | pKd | Binder
126 | 3.94 | B1
127 | 4.55 | B2
128 | below the threshold | B3
129 | 4.36 | B4
130 | 3.67 | B5
